Source: the supplement of paper PMC10266784

B1: library; numbered along this chain (parent)
chain: MAAAAAAAAEQQSSNGPVKKSMREKAVERRSVNKEHNSNFKAGYIPIDEDRLHKTGLRGRKGNLAICVIILLFILAVINLIITLVIWAVIRIGPNGCDSMEFHESGLLRFKQVSDMGVIHPLYKSTVGGRRNENLVITGNNQPIVFQQGTTKLSVENNKTSITSDIGMQFFDPRTQNILFSTDYETHEFHLPSGVKSLNVQKASTERITSNATSDLNIKVDGRAIVRGNEGVFIMGKTIEFHMGGNMELKAENSIILNGSVMVSTTRLPSSSSGDQLGSGDWVRYKLCMCADGTLFKVQVTSQNMGCQISDNPCGNTH

Variants of: B1
Assay: SGCB cell-surface expression functional score (HA stain, bin4 vs bin1, normalised to synonymous) (log10 ratio); higher = more cell-surface SGCB (functional)
Method in brief: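 HEK293 cells stably expressing alpha-, gamma- and delta-sarcoglycan received codon-saturation libraries of HA-tagged, YFP-fused human beta-sarcoglycan by lentiviral transduction at MOI <0.1, performed in duplicate. Cells positive for YFP were sorted after 72 hours and cultured for 5–7 days, then stained on ice with Alexa Fluor 647 anti-HA and fixed. Fixed cells were sorted into four 5% intensity bins and amplicon-sequenced, and the log ratio of highest-bin to lowest-bin variant frequency, as a median over codons and transductions, gives the functional score. Per section, synonymous variants were scaled to mean 0, SD 0.5.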

SGCB cell-surface expression functional score (log10) of substitutions, site by site:
I309: N 0.02; Y -0.22; F -0.22; H -0.32; R 0; S 0.1; G -0.41; P -0.24; V -0.63; E -0.14; Q -0.01; A 0.27; M -0.08; C -1.19; W 0.15; D -1.61; L 0.13; T 0.29; K -0.24
Q303: S -0.43; W -0.98; P 0.04; E 0.08; Y -0.3; I 0.25; D 0.36; V 0.37; K -0.33; H 0.07; L -0.16; M -0.16; R -0.45; G 0.2; T -0.46; A -0.65; N -0.9; F 0.11; C 0.15
D311: F 0.43; Q -0.87; N 0.01; T -0.93; Y -0.64; A 0.29; E -0.14; V 0.04; S -0.06; W 0.22; M 0.69; P -0.48; K -0.22; I 0.18; H 0.31; L 0.05; C 0.1; R 0.34; G 0.11
S302: E -0.24; A -0.01; L -0.93; G -0.36; T -1.04; I 0.38; Y -0.06; P -0.74; F 0.61; C -0.53; W -0.56; D -1.03; R 0.1; N -1.18; V 0.35; Q -1.84; K 0.45; H 0.54; M -1.5
V300: D -0.2; T 0.05; E -0.69; Y -0.33; M -1.6; R -0.27; K -2.02; C -0.27; I -0.28; F -0.2; N -0.77; L -1.14; H -0.8; W -0.26; A -0.02; Q -1.07; G -0.65; P -0.35; S -0.35
T301: F -0.72; Q 0.16; W 0.96; Y 0.14; M 0.86; L -0.56; H -0.15; I -0.29; D 0.33; A -0.27; N -0.45; V -0.21; K 0.28; C 0.31; P -0.57; R -0.14; E 0.06; S -0.16; G 0.13
G315: V -0.01; T 0.15; R 0.03; A -0.11; M 0.54; D -0.41; N 0.02; W 0.43; Y 0.26; Q 0.1; E 0.04; H 0.04; S -0.28; P -0.04; F -0.43; L -0.02; C -0.05; K -0.14; I -0.24
P313: F -0.03; E 0.11; D -0.42; H -0.07; G -0.17; Q -0.3; Y -0.27; S -0.17; N 0.01; C 0.15; K -0.22; T 0.06; L -0.14; V 0.23; I -0.92; M -0.49; W -0.38; A 0.41; R -0.02
N304: W 0.2; A -0.43; F -0.09; H 0.26; L -0.14; T -0.51; M -1.75; R -0.41; G 0.09; K 0.07; S -0.45; E 0.56; P -0.2; Y -0.11; C -0.06; D -0.34; V -1.11; I -0.42; Q -0.11
G306: L -0.44; I -0.62; M -1.83; A -0.83; K -0.17; S -0.32; C -0.99; Q -0.33; T -0.64; P -1.24; V -0.76; H 0.17; D -0.69; E -0.55; Y -1.16; W -1.81; N -0.83; F -0.43; R -0.84
Q308: G -0.76; N -0.38; Y 0.02; E 0.05; S -0.37; C -0.4; H -0.29; W -0.34; A -0.46; M 0.09; F -0.31; L -0.83; I -0.15; D 0.17; K -0.5; T -0.05; P -1.21; R 0.12; V -0.04
C314: S -0.27; G -0.29; T -0.78; N -0.61; L -0.5; P -0.09; Y -0.32; A 0.07; F -0.43; Q 0.15; H -0.18; R -1.01; I -0.11; K 0.06; E -0.03; D 0.34; M -1.88; V 0; W 0.19
N312: S 0.08; A -0.03; Q -0.46; T 0.06; G -0.13; H -0.15; F 0.03; E 0.35; C -0.41; Y 0.54; R 0.27; V 0.13; D 0.1; K 0.25; M 0.01; W 0.57; I 0.12; L 0.12; P -0.09
S310: H -0.5; P -0.54; L 0.07; T -0.25; F 0.06; E -0.2; N 0.59; K 0.24; G 0.34; I 0.04; Y 0.49; R -0.02; Q 0.27; C -0.2; W 0.98; V 0.14; M -0.01; A -0.09; D -0.01
Q299: E 0.61; N 0.04; H -0.17; F -0.05; T 0.05; Y -0.66; K 0.21; R 0; D 0.16; G -0.02; V 0.01; S 0.08; W 0.13; M -0.25; L -0.23; P -0.01; I 0.37
C307: M -0.59; V -1.17; L -0.21; I -1.65; D 0.04; E -0.34; K 0.23; G -0.44; H -0.89; A -0.28; Y 0.26; Q 0.09; R -0.37; S -0.41; F -0.36; P -0.28; W -0.24; T -0.77; N -0.37
M305: N -1.05; Q -0.28; K 0.09; H -0.9; D -0.25; A -0.71; I 0.19; G -0.51; E 0.04; C -0.18; S -0.39; V -0.22; L -0.06; W -0.29; R -0.25; Y -1.05; T 0.02; F -0.74; P -0.21
N316: K 0.03; P 0.29; L -0.05; Q 0.13; E -0.68; C 0.11; A -0.18; G -0.83; F 0.15; I -0.06; M 0.48; D 0.19; H 0.47
